From US7422862B2, “Methods for identifying modulators of apoptosis” (The Burnham Institute, priority 2001, dated 2008)

Tests used:
GFP-Bax = target: T1, GFP-Bax (Homo sapiens, UniProt Q07812); assay: STS-induced GFP-Bax translocation to mitochondria in Cos7 cells (confocal microscopy); type: cell-based; conditions: peptide transduced with Chariot, 1 μM STS
T1 construct: expressed in transfected cells; host or cells: Cos-7
Experimental: (A-B) Humanin peptide prevents STS-induced Bax translocation in vivo. Cos-7 cells were first transfected with GFP-Bax plasmids. After 24 hrs, untagged wild-type or C8P mutant Humanin peptides were introduced into cells using ChariotTM reagent, and 2 h later cells were treated with 1 μM STS. After 4 h, the percentage of cells with translocated Bax was determined (mean±SD; n=3) by confocal microscopy (A) and representative photomicrographs (B). (C) Wild-type or C8P mutant Humanin peptides were introduced into Cos7 cells using ChariotTM reagent. Cytosolic (C) and mitochondria-containing (M) fractions were isolated by differential centrifugation 23 and analyzed by immunoblotting using anti-Bax (top), Hsp60 (middle) (mitochondrial marker), or Tubulin (bottom) (cytosol marker) antibodies. (D) HN or mutant control double-strand siRNAs were transfected into SF268 cells. After 48 h, cells were cultured without (Control) or with 0.1 uM STS. After 24 hr, cells were fractionated and analyzed by immunoblotting as above. (E) Isolated mitochondria were mixed with 400 ng Bax protein, with or without preincubating Bax with 100 uM Humanin or Humanin(C8P) peptides for 10 min. After 3 h at 30° C., mitochondria were centrifuged and the resulting pellets (P) and supernatants (S) were analyzed by immunoblotting using anti-Cytochrome c (top), Hsp60 (middle), and Bax (bottom) antibodies. […]

purified recombinant Bax = purified recombinant Bax (Homo sapiens, UniProt Q07812); assay: Isolated mitochondria: Bax association and cytochrome c release assay; type: biochemical; conditions: 100 μM peptide preincubated with Bax, HCT116 mitochondria
Experimental: (A-B) Humanin peptide prevents STS-induced Bax translocation in vivo. Cos-7 cells were first transfected with GFP-Bax plasmids. After 24 hrs, untagged wild-type or C8P mutant Humanin peptides were introduced into cells using ChariotTM reagent, and 2 h later cells were treated with 1 μM STS. After 4 h, the percentage of cells with translocated Bax was determined (mean±SD; n=3) by confocal microscopy (A) and representative photomicrographs (B). (C) Wild-type or C8P mutant Humanin peptides were introduced into Cos7 cells using ChariotTM reagent. Cytosolic (C) and mitochondria-containing (M) fractions were isolated by differential centrifugation 23 and analyzed by immunoblotting using anti-Bax (top), Hsp60 (middle) (mitochondrial marker), or Tubulin (bottom) (cytosol marker) antibodies. (D) HN or mutant control double-strand siRNAs were transfected into SF268 cells. After 48 h, cells were cultured without (Control) or with 0.1 uM STS. After 24 hr, cells were fractionated and analyzed by immunoblotting as above. (E) Isolated mitochondria were mixed with 400 ng Bax protein, with or without preincubating Bax with 100 uM Humanin or Humanin(C8P) peptides for 10 min. After 3 h at 30° C., mitochondria were centrifuged and the resulting pellets (P) and supernatants (S) were analyzed by immunoblotting using anti-Cytochrome c (top), Hsp60 (middle), and Bax (bottom) antibodies. (F) HN peptide enforces the interaction of Bax TM domain with Bax.TM. Lysates from HEK293T cells expressing Flag-Bax.TM were pretreated with or without Humanin or Humanin(C8P) peptides. Lysates were then mixed in vitro with lysates of HEK293T cells expressing GFP-TM(Bax). Immunoprecipitations were performed with anti-Flag antibody, analyzing lysates and immunoprecipitates (IP) by immunoblotting using monoclonal anti-GFP antibody.
To determine whether Humanin can act directly on Bax, the effects of Humanin on isolated mitochondria were tested. Addition of recombinant purified Bax protein to mitochondria in vitro induces cytochrome c release (Jurgensmeier et al., Proc. Natl. Acad. Sci. USA 95:4997-5002 (1998)). […] Therefore Humanin can directly suppress Bax targeting to mitochondria, without requirement for intact cells.
Cytochrome c release assays were performed as follows. Mitochondria were isolated from HCT116 cells by differential centrifugation as described above. Purified recombinant human Bax protein (400 ng for each sample) was pre-incubated with or without 100 μM synthetic Humanin peptide or mutant Humanin (C8P) peptide for 10 min at 4° C. The untreated or peptide pre-treated Baxprotein samples were then mixed with equal amount of HCT116 mitochondria (in a volume of 40 μl) at 30° C. for 3 hours. […]

endogenous Bax = target: T2, endogenous Bax (Mus musculus, UniProt Q07813); assay: Co-immunoprecipitation of endogenous Humanin and Bax from mouse testis lysates; type: binding; conditions: endogenous peptide and protein
T2 construct: from tissue; host or cells: testes of three-week-old mice
Text: (A) HEK293T cells were transfected with pcDNA3-myc plasmids encoding Bax or other Bcl-2 family proteins with GFP, GFP-HN, or GFP-HN(C8P). Cell lysates were immunoprecipitated with polyclonal anti-GFP antibody. The immunoprecipitates or the lysates were blotted with anti-myc or anti-GFP antibodies, respectively. The slower migrating form of GFP seen in lane 1 (asterisk)represents an alternative form of GFP produced from the wild-type (control) p-EGFP-Cl plasmid (http://clonotech.com). (B) Testes of three-week-old mice were homogenized in lysis buffer (0.1% Triton X-100, 50 mM Tris-HCl, pH7.5, 1 mM EDTA, plus protease inhibitor cocktail). The lysates were immunoprecipitated with control rabbit serum or polyclonal anti-mouse Bax antibody. The immunoprecipitates or the lysates were subjected to electrophoresis in Tris/Tricine gels (16% T, 3% C), electroblotted to PVDF membrane, and immunoblotted with polyclonal anti-HN antibody or monoclonal anti-Bax antibody 6A7 (Trevigen). […]
A rabbit polyclonal antibody raised against Humanin peptide (P04, gift of Dr. Ikuo Nishimoto) was used to examine whether endogenous Humanin peptide interacts with endogenous Bax polypeptide. […] In addition, endogenous Humanin was determined to be a cytosolic protein, based on subcellular fractionation experiments.

purified recombinant Bax, sequence (Q07812 whole entry): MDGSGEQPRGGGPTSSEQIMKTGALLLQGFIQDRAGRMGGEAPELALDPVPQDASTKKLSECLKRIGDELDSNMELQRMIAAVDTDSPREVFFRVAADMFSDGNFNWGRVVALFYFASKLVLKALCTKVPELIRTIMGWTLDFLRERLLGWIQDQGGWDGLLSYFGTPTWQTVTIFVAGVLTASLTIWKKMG
T1 sequence (Q07812 whole entry): as above
T2 sequence (Q07813 whole entry): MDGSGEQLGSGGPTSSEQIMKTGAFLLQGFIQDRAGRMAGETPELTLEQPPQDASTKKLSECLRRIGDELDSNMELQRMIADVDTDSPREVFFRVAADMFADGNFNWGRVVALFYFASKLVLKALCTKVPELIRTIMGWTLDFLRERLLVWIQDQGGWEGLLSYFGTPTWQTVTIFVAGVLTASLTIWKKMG

In the case of “Humanin: 24 amino acid polypeptide, cytosolic form of human Humanin (SEQ ID NO:2); used as synthetic peptide or expressed fusion”, the “suppression of GFP-Bax translocation” value (GFP-Bax) is reported as “about half”, the “Bax association with mitochondria” value (purified recombinant Bax) is reported as “suppressed” and the cytochrome c release (purified recombinant Bax) is reported as “reduced”. The “co-immunoprecipitation with Bax from mouse testis lysates” value (endogenous Bax) was “co-immunoprecipitated”.
